Laboratory results taken from patent US20250277025A1.

Molecular target: human CLDN18.2 expressed on cells (human)
Experiment: cell-based or functional assay

## Human IgG1 isotype antibody
  ADCC (PBMC) on KATOIII CLDN18.2 cells, LDH: max (% cytotoxity) (run A): 0.3%
  ADCC (PBMC) on KATOIII CLDN18.2 cells, LDH: max (% cytotoxity) (run B): -5.51%
  ADCC (PBMC) on KATOIII CLDN18.2 cells, LDH: max (% cytotoxity) (run C): -7.64%
  ADCC (PBMC) on NCI-N87 CLDN18.2 cells, LDH: max (% cytotoxity) (run A): -6.73%
  ADCC (PBMC) on NCI-N87 CLDN18.2 cells, LDH: max (% cytotoxity) (run B): -11.7%
  ADCC (PBMC) on NCI-N87 CLDN18.2 cells, LDH: max (% cytotoxity) (run C): -9.22%
